Test results as given in article PMC5937170.

How the values were obtained:
Conditions in all cases: EMSA: 15 ul, 70 C for 15 min, buffer per Ochs et al. 2012 (not given), 8% native PAGE; footprint: same binding conditions, DNase I at 37 C
[1] = molecular target: T1, TFB-RF1 (Pyrococcus furiosus) (UniProt Q8U1W6); experiment: DNase I footprinting
T1 sequence: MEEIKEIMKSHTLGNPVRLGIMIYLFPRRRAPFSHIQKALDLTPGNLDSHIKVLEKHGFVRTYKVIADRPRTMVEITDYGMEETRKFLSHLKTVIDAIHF

[2] = molecular target: T2, TFB-RF1;TBP;TFB (Pyrococcus furiosus;Pyrococcus furiosus?;Pyrococcus furiosus?) (UniProt Q8U1W6+P62000+P61998); experiment: EMSA
T2 sequence 1: T1 sequence
T2 sequence 2: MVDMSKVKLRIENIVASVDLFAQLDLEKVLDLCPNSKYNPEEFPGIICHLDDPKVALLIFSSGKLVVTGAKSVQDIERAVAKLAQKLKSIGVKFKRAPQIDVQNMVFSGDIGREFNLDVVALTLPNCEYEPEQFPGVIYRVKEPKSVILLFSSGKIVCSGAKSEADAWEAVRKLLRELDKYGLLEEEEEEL
T2 sequence 3: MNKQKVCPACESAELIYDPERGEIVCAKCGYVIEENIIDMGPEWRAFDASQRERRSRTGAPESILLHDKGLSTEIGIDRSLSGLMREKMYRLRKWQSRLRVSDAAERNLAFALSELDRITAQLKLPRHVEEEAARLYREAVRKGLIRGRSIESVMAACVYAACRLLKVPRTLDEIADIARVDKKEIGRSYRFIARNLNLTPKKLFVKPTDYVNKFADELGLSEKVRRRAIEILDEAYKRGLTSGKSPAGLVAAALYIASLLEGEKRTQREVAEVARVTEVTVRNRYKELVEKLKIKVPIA

[3] = molecular target: T1, TFB-RF1 (Pyrococcus furiosus); experiment: EMSA

| Sequence | binding [1] | binding [2] | binding [3] |
| --- | --- | --- | --- |
| ACTATTTTGGAAATTAGTTAAAGCTTCTAAAAAAGCTTGTTGTTTTTCTGGGATTCAGACGGATTATTTACAAAAAAGGAAAGGAATATTGGTAGCTATA (double strand) [pf1011/1012 promoter region (footprint)] | binds |  |  |
| ACTATTTTGGAAATTAGTTAAAGCTTCTAAAAAAGCTTGTTGTTTTTCTGGGATTCAGACGGATTATTTACAAAAAAGGAAAGGAATATTGGTAGCTATA (double strand) [pf1011/1012 promoter region (EMSA)] |  | binds | binds |
